Measurements as given in paper PMC3726683, “Autophagy Activation Clears ELAVL1/HuR-Mediated Accumulation of SQSTM1/p62 during Proteasomal Inhibition in Human Retinal Pigment Epithelial Cells”.

Legend:
ELAVL1/HuR (rHuR) [1] = target: T1, ELAVL1/HuR (rHuR) (human, UniProt Q15717 1-326); experiment: AlphaScreen saturation binding; RNA titrated against 1 nM HuR; R2 0.91; Methods print 0.207±0.024 without unit; 25 mM HEPES pH 7.4, 100 mM NaCl, 0.1% BSA, room temperature, 30 min then 90 min with donor beads; settings: protein: recombinant; tags: C-terminal Myc-His (vector section) or MYC/DDK (assay section, TP301562); label: biotin (BITEG); single strand
T1 sequence (Q15717 whole entry): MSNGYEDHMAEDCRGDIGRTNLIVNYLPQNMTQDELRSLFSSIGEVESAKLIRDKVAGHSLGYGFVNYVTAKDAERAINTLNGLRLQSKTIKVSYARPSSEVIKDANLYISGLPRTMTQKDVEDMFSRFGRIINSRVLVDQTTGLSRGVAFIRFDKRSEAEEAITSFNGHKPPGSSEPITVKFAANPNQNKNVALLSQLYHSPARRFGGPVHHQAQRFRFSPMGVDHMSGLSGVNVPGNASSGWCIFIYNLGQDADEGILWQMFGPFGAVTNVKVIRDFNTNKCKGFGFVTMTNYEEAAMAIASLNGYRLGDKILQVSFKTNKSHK

ELAVL1/HuR (rHuR) [2] = target: T1, ELAVL1/HuR (rHuR); experiment: AlphaScreen saturation binding; RNA titrated against 1 nM HuR; R2 0.97; Methods print 0.087±0.021 without unit; 25 mM HEPES pH 7.4, 100 mM NaCl, 0.1% BSA, room temperature, 30 min then 90 min with donor beads; settings: protein: recombinant; tags: C-terminal Myc-His (vector section) or MYC/DDK (assay section, TP301562); label: biotin (BITEG); single strand

Binder	Kd (ELAVL1/HuR (rHuR) [1]) [nM]	Kd (ELAVL1/HuR (rHuR) [2]) [nM]
GUUUUAAAUGACUCAUAGGUCCCUGACAUUUAGUUGAUU (ssRNA) [SQSTM1/p62 ARE probe]	30.9 ± 13.2	–
AUUAUUUAUUAUUUAUUUAUUAUUUA (ssRNA) [TNFalpha ARE probe]	–	3.83 ± 0.69
